Measurements reported in patent publication WO2018215614A1 (dated 2018).

Molecular target: T1, mouse Gpa33 in which human Exon III had been substituted (mouse; human, UniProt Q9JKA5 22-70; Q99795 71-139; Q9JKA5 140-319, limits assumed)
T1 sequence (looked up): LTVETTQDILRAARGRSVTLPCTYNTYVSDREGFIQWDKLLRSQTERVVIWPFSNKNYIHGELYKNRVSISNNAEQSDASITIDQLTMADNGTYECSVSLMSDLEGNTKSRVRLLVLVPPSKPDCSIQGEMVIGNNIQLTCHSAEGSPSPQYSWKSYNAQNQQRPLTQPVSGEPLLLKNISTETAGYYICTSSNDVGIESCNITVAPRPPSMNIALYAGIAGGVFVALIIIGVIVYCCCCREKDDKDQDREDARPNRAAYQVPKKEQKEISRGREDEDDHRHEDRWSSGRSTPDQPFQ
Assay: cell-based or functional assay

B1: anti-hGpa33/Rspo4 fusion protein (antibody, human IgG1, kappa)
heavy: EVQLLESGGGLVQPGGSLRLSCAASGFAFSTYDMSWVRQAPGKGLEWVATISSGGSYTYYLDSVKGRFTISRDSSKNTLYLQMNSLQAEDSAIYYCAPTTVVPFAYWGQGTLVTVSSASTKGPSVFPLAPSSKSTSGGTAALGCLVKDYFPEPVTVSWNSGALTSGVHTFPAVLQSSGLYSLSSVVTVPSSSLGTQTYICNVNHKPSNTKVDKKVEPKSCDKTHTCPPCPAPELLGGPSVFLFPPKPKDTLMISRTPEVTCVVVDVSHEDPEVKFNWYVDGVEVHNAKTKPREQYNSTYRVVSVLPVLHQDWLNGKEYKCKVSNKALPAPIEKTISKAKGQPREPQVYTLPPSREEMTKNQVSLTCLVKGFYPSDIAVEWESNGQPENNYKTTPPVLDSDGSFFLYSKLTVDKSRWQQGNVFSCSVMHEALHYHYTQKSLSLSPGKEAAAREAAAREAAAREAAARVGTGLGGNCTGCIICSEENGCSTCQQRLFLFIRREGIRQYGKCLHDCPPGYFGIRGQEVNRCKKCGATCESCFSQDFCIRCKRQFYLYKGKCLPTCPPGTLAHQNTRECQGE
light: DIQMTQSPSSLSVSVGDRVTITCKASQNVRTVVAWYQQKPGLAPKTLIYLASNRHTGVPSRFSGSGSGTDFTFTISSLQPEDIATYFCQQHWSYPLTFGQGTKVEVKRRTVAAPSVFIFPPSDEQLKSGTASVVCLLNNFYPREAKVQWKVDNALQSGNSQESVTEQDSKDSTYSLSSTLTLSKADYEKHKVYACEVTHQGLSSPVTKSFNRGEC
difference in cell viability (ATP-driven luciferase cell viability assay), humanized Gpa33 organoids against wildtype organoids, at 0.2 nM fusion protein: 200 fold
difference in cell viability (ATP-driven luciferase cell viability assay), humanized Gpa33 organoids against wildtype organoids, at 0.4 nM fusion protein: 25 fold
